{
  "source": "paper PMC2660430",
  "about": "“Identification of Proteins Targeted by the Thioredoxin Superfamily in Plasmodium falciparum” (PLoS Pathogens, 2009)",
  "key": {"PfSAHH (recombinant …)": {"target": "T1, PfSAHH (recombinant S-adenosyl-L-homocysteine hydrolase) (P. falciparum strain 3D7, UniProt P50250 1-479)", "T1 construct": "S-adenosyl-L-homocysteine hydrolase, P. falciparum strain 3D7, Swiss-Prot Q7K6A6, PlasmoDB PFE1050w; gene amplified from a gametocyte cDNA library with primers from the start codon (NcoI) to the last codon (XhoI); Amine-coupled to a CM5 chip and oxidized on the chip with 0.5 mM DTNB before each analyte; also called oxidized SAHH; source: E. coli BL 21 (pET28a), purified (Ni-NTA)", "T1 sequence (P50250 whole entry)": "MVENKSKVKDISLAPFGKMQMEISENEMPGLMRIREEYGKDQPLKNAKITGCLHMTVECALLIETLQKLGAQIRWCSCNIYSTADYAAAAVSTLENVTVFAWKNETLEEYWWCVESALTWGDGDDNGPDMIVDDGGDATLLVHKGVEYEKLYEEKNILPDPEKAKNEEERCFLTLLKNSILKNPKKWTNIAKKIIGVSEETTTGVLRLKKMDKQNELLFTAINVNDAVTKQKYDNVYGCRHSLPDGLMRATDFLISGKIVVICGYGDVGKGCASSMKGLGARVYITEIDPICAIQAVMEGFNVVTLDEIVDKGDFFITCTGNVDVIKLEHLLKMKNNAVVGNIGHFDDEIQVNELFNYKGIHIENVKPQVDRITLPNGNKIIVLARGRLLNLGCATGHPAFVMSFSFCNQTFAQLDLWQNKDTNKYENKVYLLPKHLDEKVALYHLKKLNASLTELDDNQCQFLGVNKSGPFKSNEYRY", "experiment": "SPR; BIAcore X; SAHH amine-coupled to CM5 chip, oxidized with 0.5 mM DTNB; analyte 10 µM in HBS buffer (10 mM HEPES, 150 mM NaCl, 3.4 mM EDTA, 0.005% Nonidet P-40, pH 7.4), 25°C, 10 µl/min; elution with 2 mM DTT; FC2-FC1", "conditions": "both partners purified"}, "[1]": {"target": "T2, PfOAT (recombinant ornithine aminotransferase) (P. falciparum strain 3D7, UniProt Q6LFH8 1-414)", "T2 construct": "Ornithine aminotransferase, P. falciparum strain 3D7, Swiss-Prot Q6LFH8, PlasmoDB PFF0435w; gene amplified from a gametocyte cDNA library with primers from the start codon (NcoI) to the last codon (XhoI); Amine-coupled to a CM5 chip and oxidized on the chip with 0.5 mM DTNB before each analyte; source: E. coli BL 21 (pET28a), purified (Ni-NTA)", "T2 sequence (looked up)": "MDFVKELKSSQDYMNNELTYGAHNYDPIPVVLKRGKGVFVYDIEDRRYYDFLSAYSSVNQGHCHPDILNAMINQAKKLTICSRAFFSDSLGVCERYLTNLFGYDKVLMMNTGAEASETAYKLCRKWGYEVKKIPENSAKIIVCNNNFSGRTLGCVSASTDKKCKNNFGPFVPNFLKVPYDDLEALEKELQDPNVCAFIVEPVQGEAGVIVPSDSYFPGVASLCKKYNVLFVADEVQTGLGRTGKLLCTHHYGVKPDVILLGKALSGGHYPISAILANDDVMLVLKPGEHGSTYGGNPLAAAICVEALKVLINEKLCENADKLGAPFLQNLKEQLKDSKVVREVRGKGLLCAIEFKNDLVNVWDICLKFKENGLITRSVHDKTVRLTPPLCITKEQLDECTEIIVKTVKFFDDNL", "experiment": "SPR; BIAcore X; OAT amine-coupled to CM5 chip, oxidized with 0.5 mM DTNB; analyte 10 µM in HBS buffer (10 mM HEPES, 150 mM NaCl, 3.4 mM EDTA, 0.005% Nonidet P-40, pH 7.4), 25°C, 10 µl/min; elution with 2 mM DTT; FC2-FC1", "conditions": "both partners purified"}},
  "data": [
    {"binder": "Plrx (wild type plasmoredoxin, recombinant) (natural protein, P. falciparum, UniProt Q8I224 1-179, looked up, Plasmoredoxin (Plrx), P. falciparum, Swiss-Prot Q8I224, PlasmoDB PFC0166w; also called wild type Plrx; PfPlrx; source: E. coli M15 (pQE30), purified (Ni-NTA)) MACQVDNPPKTYPNDKTAEYEKYANYMNYLYYYQNNELKKIDSSYFKDKYLGLFFGASWCKYCVTFIDSLNIFKKNFPNVEIIYIPFDRTYQEYQSFLKNTNFYALPFDNYLYICKKYQIKNLPSFMLITPNNNILVKDAAQLIKTDEYINNLKSLIKNYIIHPKTFQFNNRFFDLFRN", "values": [
      {"measurement": "binding result", "setting": "PfSAHH (recombinant …)", "result": "binds"}
    ]},
    {"binder": "PfTrx1^C33S (natural protein, Thioredoxin 1 (PfTrx1), P. falciparum, PlasmoDB PF14_0545; Lacks the resolving cysteine; traps targets as a mixed disulfide through Cys 30; also called Trx^C33S; TrxC33S; source: E. coli M15 (pQE30), purified (Ni-NTA)) MVKIVTSQAEFDSIISQNELVIVDFFAEWCGPSKRIAPFYEECSKTYTKMVFIKVDVDEVSEVTEKENITSMPTFKVYKNGSSVDTLLGANDSALKQLIEKYAA", "values": [
      {"measurement": "binding result", "setting": "PfSAHH (recombinant …)", "result": "binds"},
      {"measurement": "binding result", "setting": "[1]", "result": "binds"}
    ]}
  ]
}
